Experimental data from the nanobody polyreactivity screen of Harvey et al. (2022).

Test: yeast display, Sf9 membrane polyspecificity reagent, FACS + sequencing; frameworks hold sequencing errors
Procedure, shortened: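 Synthetic nanobody libraries on Saccharomyces cerevisiae BJ5465 were galactose-induced for 36–48 hours, stained 1 hour at 4 °C with 10% biotinylated, detergent-solubilized Sf9 membrane reagent and enriched on streptavidin microbeads. FACS then separated cells into low and high (top ~1%) gates by anti-HA (expression) and streptavidin (reagent binding) fluorescence. Genes were colony-PCR amplified, MiSeq 2 × 250 sequenced and CDR-length filtered. A clone's polyreactivity label is that of its gate of origin.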

| Sequence | polyreactivity (PSR sort gate) |
| --- | --- |
| QVQLVESGGGLVQAGGSLRLSCAASGSILLTNAMGWYRQAPGKERELVAAITSSGGSTSYADSVKGRFTISRDNAKNTVYIQMNSLKPEDTAVYYCAAAQRYRSQQFDHWGQGTQVTVSS | low polyreactivity |
| QVQLVESGGGLVQAGGSLRLSCAASGSILLWNTMGWYRQAPGKERELVADIRLSASSTYYSDSVKGRITISRDNAKNTVYLQMNSLKPEDTAVSYSAADEYTPDYGQGYDYWGQGTQVTVSS | low polyreactivity |
| QVQLVESGGGLVQAGGSLRLSCAASGSILNDYAMGWYRQAPGKERELVAGISRGGGTYYADSVKGRFTISRDNAKNTVYLQMNSLKPEDTAVYYCAKRIYWYHYRYDYWGQGTQVTVSS | high polyreactivity |
| QVQLVESGGGLVQAGGSLRLSCAASGSILPRYVMGSYRQAPAKETELVAAISQSGGSTYYADTVKARFTISRDNAKNTVYLQMNRLKPEDTAVYYCAAEVRGWRVDYYYWGQGTQVTVSS | high polyreactivity |
| QVQLVESGGGLVQAGGSLRLSCAASGSILPYYAMGWYRQAPGKERELVAAISVSGGGTYYADSVKGRFTISRDNAKNTVYLQMNSLKPEDTAVYYCARNVNAQKVLGGFDSWGQGTQVTVSS | low polyreactivity |
| QVQLVESGGGLVQAGGSLRLSCAASGSILQTNVMGWYIQAPGKEREFVAAIRWSTVSTYYADSVKGRFTISRDNAKNTVYLQMNSLKPEDTAVYYCASAKSWYSYKMDYWGQGTQVTVSS | low polyreactivity |
| QVQLVESGGGLVQAGGSLRLSCAASGSILRRNTMGCYRQAPGKERELVAAINKTGGSTYYADSVKGRFTISRDNAKNTVYLQMNSLKPEDTAVYYCNRDKYYGTKYDYWGQGTQVTVSS | low polyreactivity |
| QVQLVESGGGLVQAGGSLRLSCAASGSILRRYAMGWYRQAPWKERELVAAITSSGGGTYYADSVKGRFTISRDNAKNTVYLQMKSLKPEVTAVYYCAAEYGWLYEYDYWGQGTQVTVSS | high polyreactivity |
| QVQLVESGGGLVQAGGSLRLSCAASGSILRSNAMGWYRQAPGKERELVAAITFNGGSTYADSVKGRFTISRDNAKNTVYLQMNSLIPEDTAVYYCATGDGPSLFDYWGQGTQVTVSS | low polyreactivity |
| QVQLVESGGGLVQAGGSLRLSCAASGSILRSYAMGWYRQAPGKERELVAAISSSGGSTYYADSVKGRFTISRDNAKNTVYLQMNSLKPEDTAVYYCAAATSRRFDYWGQGTQVTVSS | high polyreactivity |
| QVQLVESGGGLVQAGGSLRLSCAASGSILRTYTMGWYRQATGKERELVAAISSSGGRTYYADSVKGRFTISRDNAKNTVYLQMNSLKPEDTAVYYCNAGGYRYRSYDYWGQGTQVTVSS | high polyreactivity |
| QVQLVESGGGLVQAGGSLRLSCAASGSILRYTMGWYRQAPGKEREWVAAITRSGTSTYYADSVKGRFTISRDNAKNTVYLQMNSLKPEDTAVYYCAASAGPRASYYYWGQGTQVTVSS | high polyreactivity |
| QVQLVESGGGLVQAGGSLRLSCAASGSILRYYAMGWYRQAPGKERELVAAITGRGGRTYYADSVKGRFTISRDNAKYTVYLQMNSLKPEDTAVYYCAADGDNPYLHEEDYWGQGTQVTVSS | high polyreactivity |
| QVQLVESGGGLVQAGGSLRLSCAASGSILSFNAMGWYRQAPGKERELVAAISRGGSTNYADSVKGRFTISRDNAKNTVYLQMNSLKPEDTAVYYCAAVQYRYSTRWARRAYDYWGQGTQVTVSS | high polyreactivity |
| QVQLVESGGGLVQAGGSLRLSCAASGSILSINGMGWYRQAPGKERELVATIDGSDGSTFYADSVKGRFTISRDNAKNTVYLQMNSLKPEDTAVYYCAAENFWQTKEYDYWGQGTQVTVSS | low polyreactivity |
| QVQLVESGGGLVQAGGSLRLSCAASGSILSLYTMGWYRQAPGKERELVARISRSGGSTYYADSVKGRFTISRDNAKNTVYLQMNSLKTEDTAVYYCAARPYVVIYYGKSRGYYWGQGTQVTVSS | high polyreactivity |
| QVQLVESGGGLVQAGGSLRLSCAASGSILSPNAMGWYRQAPGKERELVADISSVGSTYYADSVKGRFTISRDNAKNTVYLQMNSLKPEDTAVYYCAAEFRATDGIGYDYWGQGTHVTVSS | low polyreactivity |
| QVQLVESGGGLVQAGGSLRLSCAASGSILSYYAMGWYRQAPGKEREFVAAISSGGGTYYADSVKGRFTISRDNAKNTVYLQMNSLKPEDTAVYYCNAEIWTEGGYWGQGTQVTVSS | low polyreactivity |
| QVQLVESGGGLVQAGGSLRLSCAASGSILSYYTMGWYRQAPGKERELVAAISAGGGSTYYADSVKGRFTISRDNAKNTVYLQMNSLKPEDTAVYYCASGFSRRWQYNYWGQGTQVTVSS | high polyreactivity |
| QVQLVESGGGLVQAGGSLRLSCAASGSILSYYVMGWYRQAPGKERELVAAITSDGSKNYADSVKGRFTISRDNAKNTVYLQMNSLKPEDTAVYYCAAVIAWYYGVQDVYYLGLYDYWGQGTQVTVSS | low polyreactivity |
| QVQLVESGGGLVQAGGSLRLSCAASGSILTGNAMGWYRQAPGKERELVAGITVGGTSTYYADSVKGRFTISRDNAKNTVYLQMNSLKPEDTAVYYCAAGYRSYWGVYDFDYWGQGTQVTVSS | low polyreactivity |
| QVQLVESGGGLVQAGGSLRLSCAASGSILTVYAMGWYRQAPGKERELVAAITSSGGITYYADSVKGRFTISRDNAKNTVYLQMHSLKPEDTAVYYCAAYGYGSNYRYTGYYYWGQGTQVTVSS | low polyreactivity |

| Sequence | polyreactivity (PSR sort gate) |
| --- | --- |
| QVQLVESGGGLVQAGGSLRLSCAASGSILVEYAMGWYRQAPGKERELVAGISGSTGTTYYADSVKGRFTISRDNAKNTVYLQMNSLKPEDTAVYYCAKLFPVARPQYGYWGQGTQVTVSS | low polyreactivity |
| QVQLVESGGGLVQAGGSLRLSCAASGSILVLNDMGWYRQAPGKERELVATITSGGNTYYADSVKGRFTISRDNAKNTVYLQMNSLKPEDTAVYYCNARWQRPYDYWGQGTQVTVSS | low polyreactivity |
| QVQLVESGGGLVQAGGSLRLSCAASGSILVRYAMGWYRQAPGKERELVAAITYSVGSTYYADSVKGRFTISRDNAKNTVYLQMNSLKPEDTAVYYCAASGGTEVLLMDYWGQGSQVTVSS | low polyreactivity |
| QVQLVESGGGLVQAGGSLRLSCAASGSILVYNAMGWYRQAPGKERELVDAISNTGRTYYADSVKGRFTISRDNAKNTVYLQMNSLKPEDTAVYYCADRFYRVLHRFGYWGQGTQVTVSS | high polyreactivity |
| QVQLVESGGGLVQAGGSLRLSCAASGSILVYYAMGWYRQAPGKERELVAAISSGGSTNYADSVKGRFTISRDNAKNTVYLQMNSLKPEDTAVYYCAKESGWVGAIHYDYWGQGTQVTVSS | low polyreactivity |
| QVQLVESGGGLVQAGGSLRLSCAASGSILWLNAMGWYRQAPGKERELVADITRGGSTYYADSVKGRFTISRDNAKNTVYLQMNSLTPEDTAVYYCAADAYTCQIPYYYFEHYYWGQGTQVTVSS | high polyreactivity |
| QVQLVESGGGLVQAGGSLRLSCAASGSILWYYAMGWYRQAPGKERELVATITSGGSTYYADSVKGRFTMSRDNAKNTVYLQMNILKTEDTAVYYCNADLAVDEYVYWGQGTQVTVSS | low polyreactivity |
| QVQLVESGGGLVQAGGSLRLSCAASGSILYIYAMGWYRQAPGKERELVAAITSSVGRTYYADSVKGRFTISRDNAKNTVYLQMNSLKPEDTAVYYCAAEYYYSQVAYDYWGQGTQVTVSS | high polyreactivity |
| QVQLVESGGGLVQAGGSLRLSCAASGSILYPNAMGWYRQAPGKERELVAAISSSGGRTYYADSVKGRFTISRDNAKNTVYLQMNSLKPEDTAVYYCATVSIAGPRYDYWGQGTQVTVSS | high polyreactivity |
| QVQLVESGGGLVQAGGSLRLSCAASGSILYSYAMGWYRQAPGKERELVARITKRGGRTYYADSVKGRFTISRDNAKNTVYILMNSLKPEDTAVYYCAADFQYSYGEYDYWGQGTQVTVSS | high polyreactivity |
| QVQLVESGGGLVQAGGSLRLSCAASGSILYVYAMGWYRPAPGKETELVAVITSGGSTNYADSVKGRFTISRDNAKNTVYLQMNSLKPEDTAVYYCAADPYSVYGGDYWGKGTQVTVSS | low polyreactivity |
| QVQLVESGGGLVQAGGSLRLSCAASGSILYVYAMGWYRQAPGKERELVAVITSGGSTNYADSVKGRFTISRDNAKNTVYLQMNSLKPEDTAVYYCRFKYAVAHHFWVYRYDYWGQGTQVTVSS | low polyreactivity |
| QVQLVESGGGLVQAGGSLRLSCAASGSILYYALGWYRQAPGKESELVATITRGGSTYYADSVKGRFTISRDNAKNTVYLQMNSLKPEDTAVYYCAARRAVRVGYYWHDISSYDYWGQGTQVTVSS | low polyreactivity |
| QVQLVESGGGLVQAGGSLRLSCAASGSILYYNAMGWYRQAHGKEREFVASISLTGGSTTYADSVKGRFTISRDNAKNTVYLQMNSLKPEDTAVYYCNATHYPAADRSTNNYGGGFDYWGEGTQVTVSS | low polyreactivity |
| QVQLVESGGGLVQAGGSLRLSCAASGSINHYAMGWYRQAPGKERELVAAISSSGGTTYYADSVKGRFTISRDNAKNTVYLQMNSLKPEDTAVYYCAADKLSGGLDYWGQGTQVTVSS | high polyreactivity |
| QVQLVESGGGLVQAGGSLRLSCAASGSISDIYTMGWYRQAPGKERELVAAITGSAGSTYADSVKGRFTLSRDNAKNTVYLQMNSLKPEDTAVYYCNAQPGDDVKVKLDYWGQGTQVTVSS | low polyreactivity |
| QVQLVESGGGLVQAGGSLRLSCAASGSISDWNAMGWYRQAPGKERELVAAINWSGDTTYYADSVKGRFTFSRDNSKNTVYLQMNSLKPEDTAVYYCAAYLVVDYDWYDYWGQGTQVTVSS | high polyreactivity |
| QVQLVESGGGLVQAGGSLRLSCAASGSISDWNAMGWYRQAPGKERELVAAINWSGDTTYYADSVKGRFTISRDTAKNTVYLQMNSLKPEDTAVYYCAADLVVDYEWYDYWGQGTQVTVSS | high polyreactivity |
| QVQLVESGGGLVQAGGSLRLSCAASGSISDYYAMGWYRQAPGKERELVAAISWDGGSTYYADTVKGRFTISRDNAKNTVYLQMNSLKPEDTAVYYCNAGSGASVGNHILYDYWGQGTQVTVSS | low polyreactivity |
| QVQLVESGGGLVQAGGSLRLSCAASGSISGLNAMGWYRQAPGKERELVAAISRSGGRTYYADSVKGRFTISRDNAKNTVYLQMNSLKPEDTAVYYCAAVTTWRMDYWGQGTQVTVSS | high polyreactivity |
| QVQLVESGGGLVQAGGSLRLSCAASGSISGLYAMGWYRQAPGKERELVARIRWRGDSTYYADSVKGRFTISRDNAKNTVYLQMNSLNPEDTAVFYCAASAYSGKVNKYNYWGQGTQVTVSS | high polyreactivity |
